Measurements reported in the DeepSol protein solubility set.

test: soluble on expression in E. coli; label from the status in PepcDB or PDB records

For “MDFVSEMNKILQMELEQFKEFIQKKLEEDKNYLEKLFWLPNGSQMTVLNYLIEQYSEPKLGIDDANRDLLAKIDFVLHEAKDVNVGEPLHQAIVAGKISLALHLLGVDENNFTPGESEKTDVLSILSKVRKKIEESFNHVKRCFFDVDKRDGYGRTLLSLALDAKRQELLIAILARNPIVHATTLRSSAYVPFQPIHQAVVLDYAEGITLLASMGAQLTNPLGSMRDTPVILAARLGKINALAALLELPTQSLSLESENNHLFEDKQTGHTAVEELCERMANENDKADALRGIAMLICRGAEPPRNEKMRNLLSSNRVAFLKAVSTYLADKPQLVDAFVERCHLRESALHNIVYADHSWGSSIRHLLGVPSEAALIVEELVTRKYSDPSFASENVSSLSTTATENLRSERNPLKLYAEFVRRYTQAYDSQMITNRWSTMRWMIAEGNCDWDTVVRYSKNHPTSRTRIVLNEMFNPIPRVHEDIESQQSSPRVVLK”, which “soluble on expression in E. coli” value is on record?
The value was “not soluble”.

With “MPMLTRILLLLCVALNAPLASAKETLHIYAASSMTNAVNALVADYSQQHDVKLVTVYGGSSSLARQIEAGAPADLFISANEEWANYLVEKGLVKPNKVVTLAANSLVLIRPTAQPVASFELQDAAAWQTALADSRLAVAQVDAVPAGMYAKQALQHAGVWPELESRLAQTNNVRLALALVERGESPLGIVYKTDALLSDKVTIVTAFSAQSHQPIRYPLAQLNDKAASAEWVAYLRSDAAQQILQRFGFESVSE” as the sequence, how does the “soluble on expression in E. coli” value read?
Its value is “not soluble”.

For “SGVTGAHGFPCCGKGSVEVAEMRDDLSQHQIQEEQELEADMLEQKPQLQVDLDLDPDPDPDPELEIGQVPALLESELYPALKLEAELDTEANSNEESDFEEPMQLVCKIESVHSNMGLPTPQTFRPWSLNSNCRSFTEENHMSACHHSISAQTSKHLFWANKLIQASEHSLQRAINMQLNNGSAGQPIRSPLREAIPTNALCSEEQLQIPDAHSAPPTTSSQAPSPLLSSDLPPPIDLTELITFASSLAMASSSRMDLPSLEHMMKAPPQEALEPSTEPLLTTVEEREPENHAETLPEKPREARAPLKSWSQEDKNFAQSYFDFSKPGIKRATIKGQIQLLQPPATSPLLQGSKEDSVPPGKEKENPLLVKIHFKLSAPTIPEK”, which “soluble on expression in E. coli” value is on record?
Its value is “soluble”.

For “MTRTPFSRRRFLQLSGGLALAGVSLPLWAHDMADMAGGDAHPALRLPEPYKIKLAINKSAVCLAPVAVAEQQKIFSKYNLDVEFVNFGNSTDVLLEAIATGKADAGVGMALRWLKALEQGFDVKLTAGTHGGCLNLLTAKDSPFGGLESLKGQTIGVTDMAGPDKNFFAILLKRHGIDPISDVQWKVYPADLLSVALDKREIAAISGSEPFSYRLLETGKYQLIASNMTGDYANLSCCVLGVSGSLARDHKPAAAALTQAILEAHSYAAAHPESVAQSFLAHALNTSEAEVSGILHGQGHGHHAVGEAFVKELTQYAVDLQRVQVIKPGTDPHQFAESIYANVFA”, which “soluble on expression in E. coli” value is on record?
The value was “not soluble”.

With “AHHHHHHGSIDAHAHIEFFKKNQEEIIEEAKRKLRGVVDSITEYRKTHVWKSWELLKDYFDFIFPTLGYHPNEARRGNWEKVRKVEDFILKHQKEIFGIGEIGLDYYHAKTKAERDAQREIFVHFLELAKELNLPVVIHAREAEKEALEIINRYDIPSYFHSYTGSVEVAREIVDGGHILGISTGIVFIPEVREVAKNIEIEYLVVETDAPYMSPYKGIRNKPIFVEVAIEELAKIKGMDKTEVEAVTEVNTIKFFSLPL” as the sequence, how does the “soluble on expression in E. coli” value read?
Its value is “soluble”.

For “MGSDKIHHHHHHMNDFIKFTGPADVLAFIPHTLGQTPTESFVALTMQGNKIGATLRVDAPFGQDPVGYAQTIVSYLTADEAATGSLLVIYTDESTTDGSSPYAGHVQALSTELETAGMPLQDAWLVTSELWRNYHCTDTGCCPDQPLDAITTSNGNAALIYRGSAVTGFIAPAPFTGDETAREAITARKPDGWPEDLEASRAAWARVLKDPKSLTTETAYQLAGALQHPTIRDYMMGDIVPHAPEQFTSVMLGVFPTRPDWARVDTAQEVAFELMKATPEGQRAPMLCLIGWLEWLKGQSSFAARYFKLALEDTAGYRLAELLDELVNRGLLADCSRDRKKAYDRRLKR”, which “soluble on expression in E. coli” value is on record?
Its value is “not soluble”.

With “MGSDKIHHHHHHMNDKEFGQRVRQLRESASMTREQFCDDELELSVRQLTRIEAGASKPTFSKIQYIATRLGMGLYELMPDYVSLPERYSKLKFDVLRTPTYGNEDLAEKRDAMMTEIYDDYYDELPEEEKIVVDTLCSLFDVLDTDSQEYGKEILDDYLHQSYHRSKLSINDLMILRLFIEHCQLEDLSVGTSNYALFTDLIEKLPQSIYDVHSESLFIVRDLFLAIVRILFSKELYNHIPVYIEKIENIMELSQDFQKKPILNLVKWKYELKVQHNHEIAERYYNEAITFASLLNQFHLKEKLQMEWEKDTQSLKR” as the sequence, how does the “soluble on expression in E. coli” value read?
The value was “not soluble”.

With “MAHHHHHHMYRNLFDKLKDGPLKISILGSGNWASAISKVVGTNAKNNYLFENEVRMWIRDEFVNGERMVDIINNKHENTKYLKGVPLPHNIVAHSDLASVINDADLLIFIVPCQYLESVLASIKESESIKIASHAKAISLTKGFIVKKNQMKLCSNYISDFLNIPCSALSGANIAMICGALKNIITLACGFCDGLNLPTNSKSAIIRNGINEMILFGKGTVTLKYVYHMIKEKNMTNEFPLFTVLHKISFENEDPSSLLKTFMNNKINQLNL” as the sequence, how does the “soluble on expression in E. coli” value read?
The value was “not soluble”.

Which “soluble on expression in E. coli” value does the source give for “MTDNTRLRIAMQKSGRLSDDSRELLARCGIKINLHTQRLIAMAENMPIDILRVRDDDIPGLVMDGVVDLGIIGENVLEEELLNRRAQGEDPRYFTLRRLDFGGCRLSLATPVDEAWDGPLSLNGKRIATSYPHLLKRYLDQKGISFKSCLLNGSVEVAPRAGLADAICDLVSTGATLEANGLREVEVIYRSKACLIQRDGEMEESKQQLIDKLLTRIQGVIQARESKYIMMHAPTERLDEVIALLPGAERPTILPLAGDQQRVAMHMVSSETLFWETMEKLKALGASSILVLPIEKMME” here?
The value was “soluble”.

Which “soluble on expression in E. coli” value does the source give for “MSDISRGDIRVKGFTDSEMDFQLIRQLGSSSYRAASVGECLNIANTMKNEDPEEWVRQFERLAEWQKKDGLERMVKNHVISGREQLFKASNSFRAAEYYSPPSSEHHRKLGLNSADCFCTAISSMDIHFENHSIPYKNINLPCYFISPANDGEKRDTVMIVSGFDGTLEEEFLMRGLAAVERGYNVIHFAGPGQMDVFRKYPDTYFEPDFEQVVKRIINYFEFRQEINMAKLTLMGISFGGYFATRAASHEPRIKVLIANSPILDLHAYMCSFVKMDPCEMPDSEDFSINDLPSIPNEVMPPQLKAQTEHLIRRFGQPTFKATFHYLREFTVGDSLNHIKIPCLALLGSGEGGEPGKQFAEFCKITNSAQYEFSDFEGAGSHCQVGNVSYSNAVVYDWLDSL” here?
Its value is “not soluble”.

With “MHKPCVIIPVFDHELAVPDVVKAVRAAGLPCVLVDDASSPACAAVLRQLAQGDEIYLVCLPVNQGKGGAVMAGFREAARLGFSHALQVDADGQHDLSDIPVFLEQSRQCPEALICGYPQYDESVPKGRLYARYLTHVWVWINTLSLQIRDSMCGFRLYPLAPVLVLIDAVRIGKRMDFDSEILVRLAWRGQAMRWLPTRVHYPQDGLSHFRLFHDNALISTMHAKLFFGMLMRLPLILWRRWRSLEHHHHHH” as the sequence, how does the “soluble on expression in E. coli” value read?
The value was “not soluble”.

With “MGQCRSANAEDAQEFSDVERAIETLIKNFHQYSVEGGKETLTPSELRDLVTQQLPHLMPSNCGLEEKIANLGSCNDSKLEFRSFWELIGEAAKSVKLERPVRGH” as the sequence, how does the “soluble on expression in E. coli” value read?
The value was “soluble”.

Which “soluble on expression in E. coli” value does the source give for “MAGDPMTEQDIYKLLADGERVTLECKKAQNGVPNSLWETYSAFANTNGGILLLGVYENVAEKDSLMRFTITGVEDADKIRKDLWNTINSREKVNVNLLHDEDVQTISVNGKEVIAINVPRADYNLRPVYINNNLMRGTYRRNHEGDYHCTEQMIKMMVRDAYEDGNDRMFLEYYTMDDIDIPTLEGYRVMFKTNNPEHIWNSLDHKEFLMQLGGYVVNRKDGTEGLTIAGLLMFGKGLPVRERFDYLRMDYIDKSNLIGDQRYSDRLTYDGTWENNLFNFIRMVVPRLTRDIPRPFQMDGIIRKDDTPQHKAVREAFTNMIIHADLMLNGLLRVEKYDDRFVLSNPGLLKLPVEQIYAGGESKARNQRMQHMLRMIGYGENLGSGFPLILSAWNEKHWLKPELVEQPELMQVKLILHIENRVYVTKDVTKDVTKELTERQQIILEFMQADGTITISEMSQKTNVTERTIKRDIESLTEKGILSREGGRKEGRWVIRKILEHHHHHH” here?
Its value is “soluble”.

For “MAHHHHHHMHNVYNIFRQGQKRTYMTTALDRKIREVPYLSRYVILEKLKKKPRYMSECVGTPRRAYDYNTFDKIRYKPTFNPYVHLNKDKKYRLDNWKSRDHENFDPLKCYVRGSRKSYDIPYAILPTKDELGMFHPPILSGRYKADIEKQYYMHDLPWVWHKNFYTGTSHFCDNMVIGKKKWYRKEQQNEKMKESMKKINNLVLEYREECKNKKRYNFLEKVVNTLGDEIAHKYIRKIKNIYL”, which “soluble on expression in E. coli” value is on record?
The value was “not soluble”.

For “MGSDKIHHHHHHMQNVIENFKQLCKIPHCSYETEQMKEFLSSYAKDKGFKVSVDKAGNIHAIKGKPKICLQSHYDMVCMGDAPNLEVYEENGFLRAKNSSLGADNGIGIAIMMSAMAEFENLECLFTNDEEVGLMGVNLLEHTLESKMLLNLDHESDDEIMIGCAGGVDIEASLSFNTLRKKGKIYELCAQNFKGGHSGINIIRNEKSSIKEMAKFIQENEGEIISFEGGERINSIPKHAKALVHFKDEVKSNNWIKCEFKEENEFEICDQSKKLLSLINSFTHGVRAYDENLDIVQTSINLATLRMQDNQIKFALFARSNILDGLKQVEFETLEFFKAFDFKIRSFNFYPPWEGKPNALSDMVFKALKKVSPNAKVSAIHAGLECGIIEKKQELLCASIGPNIHNPHSTDEHCEIASVEKISKVVFEVLKDNA”, which “soluble on expression in E. coli” value is on record?
Its value is “not soluble”.

For “MGSDKIHHHHHHMPVYLYYGEDTYSLNQKIDHLVNQNVHAEWKDFNYIKLSGNEKNIAAKVFTEVMTLPFGEGNKIVHTDSDHLIGSLSNEDNNQELENQLSRIPASNILLITSNKKPDSRRTVVKTILKYAQQEEFPLVPCWDKKGIVNLIGKYAAIHQVKFTPDVTDYLVEAIGNNTARVDSEFAKLAVYASEKIISLEEIKQLVSNHNTDYQKLTIAMLRNHSNLAIAQVDKLLDSNEHPLKIVATLTSFFRTWLITKAGVEARLSDIKIAEIAEVKNPKRLYYLKDEIKFVGVQKLKNSLTLLLQLETELKSGTNNLISRIIEICMI”, which “soluble on expression in E. coli” value is on record?
The value was “not soluble”.

For “MSLKEYKSKIEFSVYSTSGMKTRMEDYYLCIKNMNKMIQKEKKELTYFGVFDGHVGTSAADYCNFKLYNEIVRSKSFPKNIENAIQDGIINVENGFKEIAMKTKVNAGTTLAIVMIYDNTIYTANVGDSEIVVCYNDGSYVVTSEKHNPSVDKEKARIESAGGKVFYNHGWRVDGLLGVSRSIGDESMKKYVICQPKIWSKAIDSSFQFIIVACDGFWNVFKYEDAINLARNYLFNYSFSNEEDKDSNGIILPRNKGDVSRYLIDIALKRQSFDNITVTICYFNEGHHHHHH”, which “soluble on expression in E. coli” value is on record?
Its value is “soluble”.

With “APARPAHPLDPLSTAEIKAATNTVKSYFAGKKISFNTVTLREPARKAYIQWKEQGGPLPPRLAYYVILEAGKPGVKEGLVDLASLSVIETRALETVQPILTVEDLCSTEEVIRNDPAVIEQCVLSGIPANEMHKVYCDPWTIGYDERWGTGKRLQQALVYYRSDEDDSQYSHPLDFCPIVDTEEKKVIFIDIPNRRRKVSKHKHANFYPKHMIEKVGAMRPEAPPINVTQPEGVSFKMTGNVMEWSNFKFHIGFNYREGIVLSDVSYNDHGNVRPIFHRISLSEMIVPYGSPEFPHQRKHALDIGEYGAGYMTNPLSLGCDCKGVIHYLDAHFSDRAGDPITVKNAVCIHEEDDGLLFKHSDFRDNFATSLVTRATKLVVSQIFTAANYEYCLYWVFMQDGAIRLDIRLTGILNTYILGDDEEAGPWGTRVYPNVNAHNHQHLFSLRIDPRIDGDGNSAAACDAKSSPYPLGSPENMYGNAFYSEKTTFKTVKDSLTNYESATGRSWDIFNPNKVNPYSGKPPSYKLVSTQCPPLLAKEGSLVAKRAPWASHSVNVVPYKDNRLYPSGDHVPQWSGDGVRGMREWIGDGSENIDNTDILFFHTFGITHFPAPEDFPLMPAEPITLMLRPRHFFTENPGLDIQPSYAMTTSEAKRAV” as the sequence, how does the “soluble on expression in E. coli” value read?
The value was “soluble”.
